Test results: article doi:10.1101/473132 (bioRxiv, 2018)

Legend:
[1] = target: histone H2B, within the H3Kc9me3 mononucleosome (X. laevis, UniProt P02281 2-126); experiment: cross-linking
[2] = target: histone H4, within the H3Kc9me3 mononucleosome (X. laevis, UniProt P62799 2-103); experiment: cross-linking

B1: Swi6 (S. pombe HP1 protein) (natural protein)
chain: MKKGGVRSYRRSSTSKRSVIDDDSEPELPSMTKEAIASHKADSGSSDNEVESDHESKSSSKKLKENAKEEEGGEEEEEDEYVVEKVLKHRMARKGGGYEYLLKWEGYDDPSDNTWSSEADCSGCKQLIEAYWNEHGGRPEPSKRKRTARPKKPEAKEPSPKSRKTDEDKHDKDSNEKIEDVNEKTIKFADKSQEEFNENGPPSGQPNGHIESDNESKSPSQKESNESEDIQIAETPSNVTPKKKPSPEVPKLPDNRELTVKQVENYDSWEDLVSSIDTIERKDDGTLEIYLTWKNGAISHHPSTITNKKCPQKMLQFYESHLTFRENE
B1: binds [1]; binds [2].
